# Assay results reported in article PMC3105389.
# Read-outs that look alike come from different tables or passages of the source.
# T1: MobMN199 (MobM relaxase domain) (Streptococcus plasmid pMV158 (plasmid …, UniProt P13925 1-199))
# T1 sequence: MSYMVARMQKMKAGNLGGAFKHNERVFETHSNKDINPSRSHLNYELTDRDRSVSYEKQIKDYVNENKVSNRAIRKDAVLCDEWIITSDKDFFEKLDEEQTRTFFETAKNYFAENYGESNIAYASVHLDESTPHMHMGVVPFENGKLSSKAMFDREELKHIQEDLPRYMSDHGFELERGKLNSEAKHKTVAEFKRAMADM
# How the values were obtained:
# [1] = biological target: T1, MobMN199 (MobM relaxase domain); experiment: competition
# [2] = biological target: T1, MobMN199 (MobM relaxase domain); experiment: EMSA
# [3] = biological target: T1, MobMN199 (MobM relaxase domain); experiment: competition; remark: listed apart in the source
# [4] = biological target: T1, MobMN199 (MobM relaxase domain); experiment: competition; remark: listed apart in the source
binder,measurement,setting,value
GAATATAAAGT (ssDNA) [IR1-R 11-mer],binding result,[1],no binding
GCACACACTTTATGAATATAAAGTATAGTGTG (ssDNA) [IR3 32-mer],Kd,[2],60 ± 7 nM
ACTTTATGAATATAAAGT (ssDNA) [IR1 18-mer],binding result,[3],no binding
ACTTTATGAATATAAAGTATAGTGTG (ssDNA) [IR1+8 26-mer],binding result,[4],binds
GTATAGTGTG (ssDNA) [10-NIC 10-mer],binding result,[3],no binding
GCACACACTTTATGA (ssDNA) [IR3-L 15-mer],binding result,[1],no binding
GCACACACTTTATGAATATAAAGTATAGTGTGTTATACTTTA (ssDNA) [ORIT 42-mer],Kd,[2],58 ± 6 nM
TAAAGTATAGTGTGTTATACTTTA (ssDNA) [IR2 24-mer],binding result,[1],no binding
